Test results: article PMC5843802, “DATATOC: a novel conjugate for kit-type ^68Ga labelling of TOC at ambient temperature” (EJNMMI Radiopharmacy and Chemistry, 2016)

Format: physicochemical
Description: The lipophilicity was determined using the shake-flask method (logP) and qualitatively by radio-HPLC relative to ^68Ga-DOTATOC (Notni et al. [2013]; Du et al. [1998]). Radiolabels were prepared following acetone-PP. Analytical radio-HPLC (LiChrospher 100-RP-18EC, 1 mL/min) for lipophilicity studies was based on a gradient using H2O (A) and MeCN (B), each containing 0.1 % TFA. Mobile phase gradient: 0–1.5 min 1 % B, 1.5–10.5 min 99 % B, 11.5 min 99 % B, 12–15 min 1 % B. The HPLC was coupled to a UV (Hitachi L-7400) and a radioactivity (Gamma Raytest) detection system. HPLC grade solvents were used and degassed by sonication for 15–20 min prior to use.

With C[C@@H](O)[C@@H]1NC(=O)[C@H](CCCCN)NC(=O)[C@@H](Cc2c[nH]c3ccccc23)NC(=O)[C@H](Cc2ccc(O)cc2)NC(=O)[C@@H](NC(=O)[C@@H](Cc2ccccc2)NC(=O)CN2CCN(CC(=O)O)CCN(CC(=O)O)CCN(CC(=O)O)CC2)CSSC[C@@H](C(=O)N[C@H](CO)[C@@H](C)O)NC1=O [^68Ga-DOTATOC, metal not drawn] the “radio-HPLC retention time (tR) as measure of lipophilicity” value was 10.3 min.
